IntAct's records for PubMed 23523103

Molecular target: hsp7c_human HSPA8 (UniProt P11142)

L-lactate dehydrogenase A chain (Homo sapiens) (from UniProt P00338) K5Q
effect of a mutation on the interaction: increasing interaction
